From FireProtDB

Details: Capra hircus; pH 7; 25 °C; GdnHCl; CD; sodium cacodylate 50 mM; NaCl 50 mM; reversible: yes; whole UniProt chain shown

B1: Alpha-lactalbumin wild type, P00712 (protein)
chain: MMSFVSLLLVGILFHATQAEQLTKCEVFQKLKDLKDYGGVSLPEWVCTAFHTSGYDTQAIVQNNDSTEYGLFQINNKIWCKDDQNPHSRNICNISCDKFLDDDLTDDIVCAKKILDKVGINYWLAHKALCSEKLDQWLCEKL
- denaturant m value: 2.2 kcal/mol/M
- denaturant midpoint (higher = more stable): 2.6 M
- unfolding free energy: 5.7 kcal/mol
